The results in this text go back to patent publication US20020065398A1 (CENTRO DE INMUNOLOGIA MOLECULAR, published 2002).

Assay [1] concerns the target T1, human epidermal growth factor receptor (human, UniProt P00533 25-1210).
T1 construct: whole, on cells; also called EGF-R; EGF receptor
Kind of assay: RRA, 125I-EGF competition on human placenta microsomal fraction.

For assay [2], the target named is T1, human epidermal growth factor receptor. Nature of the assay: RRA, concentrated supernatants of transfected NSO cells.

B1: first version of humanized R3 antibody (R3-huVH(a) with R3-huVK) (antibody, human IgG1, V domains shown)
VH: QVQLQQSGAEVKKPGSSVKVSCKASGYTFTNYYIYWVRQAPGQGLEWIGGINPTSGGSNFNEKFKTRVTITVDESTNTAYMELSSLRSEDTAFYFCARQGLWFDSDGRGFDFWGQGSTVTVSS
VL: DIQMTQSPSSLSASVGDRVTITCRSSQNIVHSNGNTYLDWYQQTPGKAPKLLIYKVSNRFSGVPSRFSGSGSGTDFTFTISSLQPEDIATYYCFQYSHVPWTFGQGTKLQITR
notes: R3 CDRs grafted on human Eu (VH) and REI (VK) frameworks; human IgG1 / kappa constant regions; also called humanized (1) R3; version 1
B1: the binding result in assay [1] is “no binding”.

B2: hybrid humanized R3VH/murine R3VK (antibody, V domains shown)
VH: QVQLQQSGAEVKKPGSSVKVSCKASGYTFTNYYIYWVRQAPGQGLEWIGGINPTSGGSNFNEKFKTRVTITVDESTNTAYMELSSLRSEDTAFYFCARQGLWFDSDGRGFDFWGQGSTVTVSS
VL: DVLMTQIPLSLPVSLGDGASISCRSSQNIVHSNGNTYLDWYLQKPGQSPNLLIYKVSNRFSGVPDRFRGSGSGTDFTLKISRVEAEDLGVYYCFQYSHVPWTFGGGTKLEIK
notes: Human gamma-1 and kappa constant regions; tested as concentrated supernatant of transfected NSO cells; The hybrid was made before the further VH versions, so its humanized VH is read as the first version
As for B2, the binding result in assay [2] was “no binding”.

B3: reshaped R3VH-K66A67 with huVKR3 (antibody, V domains shown)
VH: QVQLQQSGAEVKKPGSSVKVSCKASGYTFTNYYIYWVRQAPGQGLEWIGGINPTSGGSNFNEKFKTKATITVDESTNTAYMELSSLRSEDTAFYFCARQGLWFDSDGRGFDFWGQGSTVTVSS
VL: DIQMTQSPSSLSASVGDRVTITCRSSQNIVHSNGNTYLDWYQQTPGKAPKLLIYKVSNRFSGVPSRFSGSGSGTDFTFTISSLQPEDIATYYCFQYSHVPWTFGQGTKLQIT
notes: Human IgG1 / kappa; also called 66 and 67 changes
As for B3, the binding result in assay [1] was “no binding”.
